# From patent publication US11357816B2, “Ligand controling interaction between gags with their effector molecules and use thereof” (CENTRE NATIONAL DE LA RECHERCHE SCIENTIFIQUE (CNRS), priority 2018, dated 2022)
# Biological target: T1, Sema-3A (Mus musculus, UniProt O08665)
# T1 construct: Visual cortex of adult mice were dissected and lysed in homogenization buffer; from tissue; host or cells: adult mouse visual cortex
# T1 sequence (O08665 21-772): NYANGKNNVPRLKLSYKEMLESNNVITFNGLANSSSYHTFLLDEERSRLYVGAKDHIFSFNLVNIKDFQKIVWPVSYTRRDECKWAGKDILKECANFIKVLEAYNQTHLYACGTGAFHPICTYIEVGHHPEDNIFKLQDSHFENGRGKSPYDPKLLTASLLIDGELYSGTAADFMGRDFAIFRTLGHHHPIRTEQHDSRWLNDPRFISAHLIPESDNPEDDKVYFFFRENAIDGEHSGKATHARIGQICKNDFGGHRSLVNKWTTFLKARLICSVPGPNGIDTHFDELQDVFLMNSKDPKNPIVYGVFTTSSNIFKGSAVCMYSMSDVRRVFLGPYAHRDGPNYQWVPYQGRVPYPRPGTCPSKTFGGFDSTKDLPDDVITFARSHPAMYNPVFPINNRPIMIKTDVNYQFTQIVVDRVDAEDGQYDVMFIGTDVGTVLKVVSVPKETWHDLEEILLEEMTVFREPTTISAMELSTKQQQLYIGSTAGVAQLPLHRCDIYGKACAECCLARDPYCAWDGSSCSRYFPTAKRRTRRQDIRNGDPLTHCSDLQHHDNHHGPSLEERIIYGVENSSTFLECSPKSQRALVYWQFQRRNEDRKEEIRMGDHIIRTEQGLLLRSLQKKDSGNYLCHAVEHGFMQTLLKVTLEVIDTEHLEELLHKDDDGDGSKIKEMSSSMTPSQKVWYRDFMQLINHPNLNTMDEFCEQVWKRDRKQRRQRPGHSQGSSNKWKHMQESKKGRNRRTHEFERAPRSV
# Assay: Ligand pull-down with lysates of adult mouse visual cortex, western blot for Sema-3A
# Assay type: binding
# Details: ligand pre-incubated with 50 nmol peptide
# Procedure: Visual cortex of adult mice were dissected and lysed in homogenization buffer (0.32 M sucrose, 5 mM HEPES, 10 mM MgCl2 and protease inhibitors). Samples were centrifuged (8 min, 1700 g) at 4° C. and the supernatant was incubated 2 hours at 37° C. with 5 nmol of GAG mimics. For the competition assay, ligands were pre-incubated 30 min with 50 nmol of RK-, AA- or SC-peptide at 37° C. prior to incubation overnight at 4° C. with streptavidin-coupled Dynabeads (Life technologies). The loaded beads were washed with homogenization buffer and heated 10 min at 95° C. in Laemmli buffer (with DTT) to detach proteins for western blot analysis.
# Immunoprecipitated proteins were separated on NuPAGE 4-12% Bis-Tris pre-cast gels (Invitrogen) for 1 h at 200 V and transferred onto a methanol-activated PVDF membrane at 400 mA for 1 h. Membranes were blocked with 5% non-fat dry milk for 1 h before incubation with primary antibody anti-Sema3A (rabbit, 1/1000, Millipore) overnight at 4° C. […] Membranes were digitized with an LAS-4000 (Fujifilm) and quantified by densitometry with ImageJ.
# To measure the in vivo activity and specificity of biotinylated GAG mimics, we performed biochemical and immunohistochemical analyses. […] We first focused on Sema-3A, as cortical Otx2 levels are too low to be reliably detected biochemically.
sequence,measurement,value
RKQRRERTTFTRAQL [RKpep],disruption of Sema-3A interaction with (EC′AC′)6 by competing peptide,specifically disrupts Sema-3A interaction
